In publication PMC5698383 (Applied Biochemistry and Biotechnology, 2017) one finds stoichiometry N data, which are given here for one substance.

Test [1] deals with Fructose 1,6-bisphosphatase II from Francisella tularensis (glpX gene product) (Francisella tularensis). The experiment in a line: SEC.
Test [2] has the same target. The experiment in a line: SEC. This is another data set of the same source.

Like-named read-outs stand apart in the source and are kept apart here.

Consider “Fructose 1,6-bisphosphatase II from Francisella tularensis (glpX gene product) (enzyme)”, for which the stoichiometry N in test [1] turned out to be 4; in test [2], 2.
